Assay results published in PMC2789240, “Comparative structural, kinetic and inhibitor studies of Trypanosoma brucei trypanothione reductase with T. cruzi^” (Molecular and Biochemical Parasitology, 2010).

B1: TcTryR (recombinant T. cruzi trypanothione reductase) (Trypanosoma cruzi) (protein)
chain: MMSKIFDLVVIGAGSGGLEAAWNAATLYKKRVAVIDVQMVHGPPFFSALGGTCVNVGCVPKKLMVTGAQYMEHLRESAGFGWEFDRTTLRAEWKKLIAVKDEAVLNINKSYEEMFRDTEGLEFFLGWGSLESKNVVNVRESADPASAVKERLETENILLASGSWPHMPNIPGIEHCISSNEAFYLPEPPRRVLTVGGGFISVEFAGIFNAYKPKDGQVTLCYRGEMILRGFDHTLREELTKQLTANGIQILTKENPAKVELNADGSKSVTFESGKKMDFDLVMMAIGRSPRTKDLQLQNAGVMIKNGGVQVDEYSRTNVSNIYAIGDVTNRVMLTPVAINEAAALVDTVFGTNPRKTDHTRVASAVFSIPPIGTCGLIEEVASKRYEVVAVYLSSFTPLMHNISGSKYKTFVAKIITNHSDGTVLGVHLLGDNAPEIIQGVGICLKLNAKISDFYNTIGVHPTSAEELCSMRTPSYYYVKGEKMEKPSEASL
notes: made in house
B2: TcTryR (Trypanosoma cruzi) (protein)
chain: B1 chain
notes: made in house

How the values were obtained:
[1] = substrate: N[C@@H](CCC(=O)N[C@H]1CSSC[C@H](NC(=O)CC[C@H](N)C(=O)O)C(=O)NCC(=O)NCCCNCCCCNC(=O)CNC1=O)C(=O)O; test: 412 nm DTNB-coupled trypanothione reductase assay (IC50, Km); type: biochemical, Trypanosoma cruzi; details: other: saturating NADPH; pH 7.4; 25.0 °C
Procedure: Assay plates were prepared using a Precision2000 liquid handler (Bio-Tek) with a final DMSO concentration of 1% in all wells. Plates contained a 10-point serial dilution (2-fold or 3-fold dilutions) across columns 2–11 with a top concentration of 100 μM or 200 μM. […] Column 1 contained full signal controls (no inhibitor) and column 12 contained background controls (no enzyme).

[2] = substrate: N[C@@H](CCC(=O)N[C@H]1CSSC[C@H](NC(=O)CC[C@H](N)C(=O)O)C(=O)NCC(=O)NCCCNCCCCNC(=O)CNC1=O)C(=O)O; test: 340 nm NADPH oxidation trypanothione reductase assay; type: biochemical, Trypanosoma cruzi; details: other: 340 nm assay; pH 7.4; 25.0 °C
Procedure: TryR was assayed spectrophotometrically either by monitoring the trypanothione-dependent oxidation of NADPH at 340 nm, or by the reduction of 5,5′-dithio-bis(2-nitrobenzoic acid) (DTNB) at 412 nm (see Fig. 1B). Assays at 340 nm were carried out at 25 °C in 500 μl volume acrylic cuvettes and changes in absorbance monitored with a UV-1601 PC spectrophotometer (Shimadzu). The standard assay mixture contained 40 mM HEPES pH 7.4, 1 mM EDTA, ∼10 mU ml^−1 TryR, 150 μM NADPH and 100 μM T(S)2. Assays at 412 nm were carried out in 96-well plates (Polysorp, Nunc) at room temperature in a volume of 200 μl. Changes in absorbance were monitored in a SpectraMax 340pc plate reader (Molecular Devices). The standard assay mixture contained 40 mM HEPES pH 7.4, 1 mM EDTA, ∼10 mU ml^−1 TryR, 150 μM NADPH, 6 μM T(S)2 and 50 μM DTNB. All assays were initiated by addition of the T(S)2. Data was collected using SoftMax Pro (molecular devices) and UVProbe 2 (Shimadzu) software, processed and analysed using Excel 2002 (Microsoft) and GraFit 5 (Erithacus Software). NADPH stock solutions were measured spectrophotometrically at 340 nm using an absorption coefficient of 6.22 × 10^3 M^−1 cm^−1[16]. The concentration of T(S)2 stock solutions were determined by measuring the oxidation of NADPH in the presence of excess TryR.
Km values with respect to T(S)2 were determined for TbTryR in both assays using purified recombinant T. cruzi TryR for comparison. Determinations for each enzyme were carried out in three independent experiments and a weighted mean calculated.

Protein | Km [1] [µM] | Km [2] [µM] | kcat [2] [s⁻¹] | kcat/Km [2] [M⁻¹ s⁻¹]
B1 | 10.4 ± 0.3 | – | – | –
B2 | – | 29.6 ± 2.8 | 77 ± 8 | 2.6e+06
